Data taken from US9074002B2, “PTP1B inhibitors” (Cold Spring Harbor Laboratory, priority 2009, dated 2015).
“Also recorded” adds a separate entry of the source.

B1: scFv67: scFv, SEQ ID NO: 100 and 161 (protein)
scFv: MKKTAIAIAVALAGFATVAQAALTQPSSVSANPGGTVKITCSGSSSAYGYGWYQQKSPGSAPVTVIYNNNKRPSNIPSRFSGSKSGSTGTLTITGVQAEDEAVYFCGSEDSSTDAIFGAGTTLTVLGQSSRSSAVTLDESGGGLQTPGGALSLVCKASGFTFSSYDMGWVRQAPGKGLEYVAGITNDGRYASYGSAVDGRATISRDNGQSTVRLQLNNLRAEDTGTYYCARDDGSGWTGNTIDTWGHGTEVIVSSTSGQAGQHHHHHHGAYPYDVPDYAS
B2: scFv102: scFv, SEQ ID NO: 130 and 162 (protein)
scFv: MKKTAIAIAVALAGFATVAQAALTQPSSVSANPGETVKITCSGGSGSYGWYQQESPGSAPVTVIYYNDKRPSDIPSRFSGSASGSTATLTIAGVRAEDEAVYFCGSWDSSTSAGIFGAGTALTVLGQSSRSSAVTLDESGGGLQTPGGGLSLVCKASGFSSSHGMGWMRQAPGKGLEFVAGIRSDGSSTAYGAAVDGRATITRDDGQSTVTLQLNNLRAEDTATYFCAKTNSYNSAGIIDAWGHGTEVIVSSTSGQAGQHHHHHHGAYPYDVPDYAS

Columns and labels:
[1] = biological target: T1, endogenous PTP1B-OX (Homo sapiens, UniProt P18031); experiment: Intrabody interaction in 293T cells treated with H2O2 (Ni-NTA pull down / anti-PTP1B immunoprecipitation); assay type: cell-based; conditions: 1 mM H2O2 5 minutes, FIGS. 11, 12
T1 construct: endogenous in cells; host or cells: 293T cells (transfected only with the scFv intrabody)
T1 sequence (P18031 1-435): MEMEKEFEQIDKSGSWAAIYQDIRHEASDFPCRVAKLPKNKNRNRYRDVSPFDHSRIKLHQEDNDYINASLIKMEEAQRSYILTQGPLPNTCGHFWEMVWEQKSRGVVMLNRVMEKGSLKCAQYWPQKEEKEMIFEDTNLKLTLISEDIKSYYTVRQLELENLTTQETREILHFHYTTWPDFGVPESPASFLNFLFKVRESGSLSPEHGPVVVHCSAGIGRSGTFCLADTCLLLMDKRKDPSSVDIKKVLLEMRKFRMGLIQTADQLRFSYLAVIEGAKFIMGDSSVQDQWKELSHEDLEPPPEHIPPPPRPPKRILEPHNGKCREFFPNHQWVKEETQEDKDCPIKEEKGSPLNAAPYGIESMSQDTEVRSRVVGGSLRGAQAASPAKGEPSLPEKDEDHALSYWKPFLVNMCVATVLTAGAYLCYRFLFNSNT
Experimental: (§1) One of the positive candidate scFvs (scFv45) was cloned in pcDNA3.2/V5-GW/D-TOPO expression vector and transiently expressed in mammalian cells as stable intracellular antibody (aka intrabody) (FIG. 10). To detect PTP1B-OX and scFv45 interaction in mammalian cells, scFv45 was overexpressed in 293T cells as described herein (See Example 4) and 48 hours post transfection the cells were serum-starved for 16 hours in growth medium (DMEM, low glucose) without serum (FBS), then incubated with 1 mM H2O2 (in growth medium without serum) for 5 minutes at 37° C. or treated with 20 mM NAC (in growth medium without serum) for 1 hour at 37° C. Cells treated with H2O2 were washed twice with cold (4° C.) PBS and lysed in lysis buffer (25 mM HEPES, pH 7.4, 150 mM NaCl, 0.25% Deoxychloate, 1% TritonX-100, 25 mM NaF, 10 mM MgCl2, 1 mM EDTA, 10% Glycerol, 0.5 mM PMSF, 10 mM Benzamidine, protease inhibitor cocktail). Cells treated with NAC were lysed with lysis buffer containing 2 mM TCEP to ensure a post-lysis reducing environment. Interaction between PTP1B and intrabody45 were tested by pulling down the protein complex from 1 mg of total cell lysate with Ni-NTA agarose or by immunoprecipitating PTP with anti-PTP1B (FG6). For the pull down experiment, Ni-NTA agarose beads were incubated with the lysates (both oxidized and reduced) at 4° C. Protein complex bound to the Ni-NTA agarose beads was pulled down and washed three times; first with lysis buffer containing 20 mM imidazole followed by two more washes with wash buffer (PBS, pH 7.4, 20 mM imidazole, 0.05% BSA, 0.05% Tween-20 and protease inhibitors). Applicant used 20 mM imidazole in the wash buffer to reduce the non-specific binding of proteins with the Ni-NTA agarose beads. The complex was eluted with wash buffer containing 500 mM imidazole with gentle shaking at 4° C. and the eluate was mixed with SDS sample buffer with DTT. For the immunoprecipitation experiments, 1 mg of total cell lystates (both oxidized and reduced) was incubated with anti-PTP1B antibody (FG6) at 4° C. The interacting protein complex was immunoprecipitated after incubating the lysate-antibody mixture with protein A/G Sepharose at 4° C. After immunoprecipitation, Sepharose beads were washed three times; first with lysis buffer followed by two more washes with wash buffer (PBS, pH 7.4, 0.05% BSA, 0.05% Tween-20 and protease inhibitors). The Sepharose beads were then heated at 90° C. in 2×SDS sample buffer with DTT. Proteins from the pulled down or immunoprecipitated complex were separated by SDS-PAGE. PTP was detected with anti-PTP1B antibody (FG6) and the intrabodies were detected with anti-HA (3F10)-HRP antibody [anti-HA (3F10)-HRP, Roche] by immunoblotting.
In the initial in vitro phosphatase screening assay using reversibly oxidized (with H2O2) recombinant PTP1B, Applicant found four different PTP1B-OX specific scFvs (scFv45, scFv57, scFv64 and scFv106) from the initial pool of 12 different scFvs. […] Applicant has also shown that scFv45, expressed as an intrabody in mammalian cells, can bind to endogenous PTP1B-OX but not endogenous PTP under reducing conditions. Further assessment was carried out to identify additional PTP1B-OX-specific intrabodies. Additional scFvs have been subcloned in pcDNA3.2/V5-GW/D-TOPO mammalian expression vector (FIG. 10) from their respective phagemid constructs. After transient overexpression of these scFvs as intrabodies in 293T cells, the interaction between endogenous PTP1B and these intrabodies in both H2O2-treated cells and cells was observed under reducing condition (treated with NAC and lysed with lysis buffer containing TCEP). […] All can be used in the methods and compositions described herein. Additional scFvs, such as some or all of the 137 selected individual scFvs from the library, can be similarly tested by in vitro screening and/or by binding assay in mammalian cells.

[2] = biological target: T2, endogenous PTP1B under reducing conditions (Homo sapiens, UniProt P18031); experiment: Intrabody interaction in 293T cells under reducing condition (NAC, TCEP) (Ni-NTA pull down / immunoprecipitation); assay type: cell-based; conditions: 20 mM NAC, lysis buffer with 2 mM TCEP, FIGS. 11, 12
T2 construct: endogenous in cells; host or cells: 293T cells (transfected only with the scFv intrabody)
T2 sequence (P18031 1-435): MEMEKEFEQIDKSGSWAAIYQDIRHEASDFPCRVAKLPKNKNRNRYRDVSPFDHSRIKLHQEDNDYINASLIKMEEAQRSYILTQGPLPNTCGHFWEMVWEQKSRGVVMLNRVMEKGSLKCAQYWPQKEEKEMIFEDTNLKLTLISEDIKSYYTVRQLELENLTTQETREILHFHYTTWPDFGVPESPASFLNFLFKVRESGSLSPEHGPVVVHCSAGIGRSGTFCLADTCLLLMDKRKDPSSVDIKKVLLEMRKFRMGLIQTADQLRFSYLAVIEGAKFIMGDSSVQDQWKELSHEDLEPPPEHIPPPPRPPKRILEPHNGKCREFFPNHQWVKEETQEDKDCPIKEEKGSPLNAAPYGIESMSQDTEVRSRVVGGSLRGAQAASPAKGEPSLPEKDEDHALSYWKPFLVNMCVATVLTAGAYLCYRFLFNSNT
Experimental: as §1
In the initial in vitro phosphatase screening assay using reversibly oxidized (with H2O2) recombinant PTP1B, Applicant found four different PTP1B-OX specific scFvs (scFv45, scFv57, scFv64 and scFv106) from the initial pool of 12 different scFvs. […] Applicant has also shown that scFv45, expressed as an intrabody in mammalian cells, can bind to endogenous PTP1B-OX but not endogenous PTP under reducing conditions. Further assessment was carried out to identify additional PTP1B-OX-specific intrabodies. Additional scFvs have been subcloned in pcDNA3.2/V5-GW/D-TOPO mammalian expression vector (FIG. 10) from their respective phagemid constructs. […]

Molecule | binding of intrabody to endogenous PTP1B-OX [1] | binding of intrabody to endogenous PTP1B under reducing conditions [2]
B1 | bound to endogenous PTP1B-OX strongly; also recorded: co-pulldown of PTP1B-OX in the presence of H2O2 | not in the presence of NAC and TCEP
B2 | bound to endogenous PTP1B-OX strongly; also recorded: co-pulldown of PTP1B-OX in the presence of H2O2 | not in the presence of NAC and TCEP
